# Numbering of substitutions follows the chain as printed. Like-named read-outs stand apart in the source and are kept apart here.
# B1: Hu195H8D10-1 NG-NA (antibody, V domains shown)
# VH: EVQLVESGGGLVQPGGSLRLSCAASGFNFNTYVMNWVRQAPGKGLEWVGRIRTKSNNYATYYADSVKDRFTISRDDSKNSLYLQMNSLKTEDTAVYYCARGTITRLGGGLDYWGQGTLVTVSS
# VL: DIVMTQSPLSLPVTPGEPASISCRSSKRLLHSNANTYLYWYLQKPGQSPQLLIYRMSNLASGVPDRFSGSGSGTDFTLKISRVEAEDVGVYYCMQHLEYPFTFGGGTKLEIK
# notes: humanized, PTM site removed
# B2: Hu195H8D10-7 NG-NA (antibody, V domains shown)
# VH: B1 VH with G49A, A99V, R100S
# VL: B1 VL with D75A
# notes: humanized, PTM site removed
# B3: Hu200C9B9-3 NG-NA (antibody, V domains shown)
# VH: B1 VH with N28S, Y61F, A63V, G108A
# VL: B1 VL with R28S, D75A
# notes: humanized, PTM site removed
# B4: 96G3-1F10 (antibody, V domains shown)
# VH: DLQLKESGPGLVKPSQSLSLTCSVTGYSITSGYYWNWIRQFPGNKLEWMGFISYDGNNNYNPSLKNRISITRDTSKNQFFLNVKSVTTEDTATYYCSRATGLRKAWFAYWGQGTLVTVSA
# VL: DIQMTQSSSYLSVSLGGRVTITCKASDHINNWLAWYQQKPGNAPRLLISDTTSLGTGVPSRFRGSGSGKDYTLSITSLQTEDVATYFCQQYWSYPYTFGGGTKLEIR
# notes: tested as chimeric mAb
# B5: 115C5E3B8 (antibody, V domains shown)
# VH: DVQLQESGPGLVKPSQSLSLTCSVTGYSITSGYYWNWIRQFPGNKLEWMGYISYDGYNDYNPSLKNRISITRDTSKNQFFLKLNSVTTEDTATYYCARETGLRKAWFAYWGQGTLVTVSG
# VL: B4 VL with W32R, T52S, G55E, R63S, S74R, F87Y, S93G, Y94T, R107K
# notes: tested as chimeric mAb
# B6: 101D5G10G4 (antibody, V domains shown)
# VH: B4 VH with F51Y, V83L, K84N
# VL: B4 VL
# notes: tested as chimeric mAb
# B7: 86D4E12A5 (antibody, V domains shown)
# VH: DLQLKESGPGLVKPSQSLSLTCSVTGYSITSGYYWNWIRQLPGNKLEWMGYISFDGSNNYNPSLKTRISITRDTSKNQFFLKLNSVTSEDTATYFCARLRGLLLGHFDVWGTGTTVTVSS
# VL: DVQMTQSSSYLSVPLGGRVTITCKASDHINNRLAWYQQKPGNAPRLLISGATKLETGIPSRFRGSGSGKDYTLSIFSLQTEDVATYYCQQYWSTSYTFGGGTKLELR
# notes: tested as chimeric mAb
# B8: 99D1-1E11 (antibody, V domains shown)
# VH: B7 VH with L41F, F54Y, F95Y, A97V, L99E
# VL: B7 VL with V2I, P14A
# notes: tested as chimeric mAb
# B9: 187B5F10 (antibody, V domains shown)
# VH: EVQLVGSGGGLVQPKGSLKLSCAASGFNFNTYVMNWVRQAPGKGLEWVARIRTKSNNYATYYADSVKDRFTISRDDSESKLYLQMNNLKTEDTAMYYCVSGTITRLGGGMDYWGQGTSVTVSS
# VL: DIVMTQAAPSVPVTPGESVSISCRSSKRLLHSNGNTYLYWFLQRPGQSPQLLIYRMSNLASGVPDRFSGSGSGTAFTLRISRVEAEDVGVYYCMQHLEYPFTFGGGTKLEIK
# notes: tested as chimeric mAb
# B10: Hu200C9B9-15 (antibody, V domains shown)
# VH: B1 VH with N28S, E46N, G49A, Y61F, A63V, K78E, A99V, R100S, G108A
# VL: B1 VL with R28S, A34G, D75A
# notes: humanized
# B11: 195H8D10-C2 (antibody, V domains shown)
# VH: B9 VH with M110L
# VL: B9 VL with G34A
# notes: also called 195H8D10 VH with 195H8D10 VL NG-NA
# B12: Hu200C9B9-12 (antibody, V domains shown)
# VH: B1 VH with N28S, E46N, G49A, Y61F, A63V, A99V, R100S, G108A
# VL: B1 VL with R28S, A34G, Y41F, D75A
# notes: humanized
# B13: Hu200C9B9-14 (antibody, V domains shown)
# VH: B1 VH with N28S, E46N, G49A, Y61F, A63V, K78E, A99V, R100S, G108A
# VL: B1 VL with R28S, A34G, Y41F
# notes: humanized
# B14: 200C9B9-C2 (antibody, V domains shown)
# VH: EVQLVESGGGLVQPKGSLKLSCAASGFSFNTYVMNWVRQAPGKGLNWVARIRTKSNNYATFYVDSVKDRFTISRDDSENMLYLQMNNLKIEDTAIYYCVSGTITRLGAGLDYWGQGTSVTVSS
# VL: B9 VL with R28S, G34A
# notes: also called 200C9B9 VH with 200C9B9 VL NG-NA
# B15: 84D1-2H3 (antibody, V domains shown)
# VH: EVQLQQSGPVLVKPGASVKMSCKASGYTFTDYYVNWVKKSHGKSPEWIGIIKPYNGGTSYNQKFKGKATLTVDKSSSTVYMELNSLTSEDSAVYHCARFAYSRNPYAMDYWGQGTSVTVSS
# VL: DVLLTQTPLSLPVSLGDQASISCRSSQSIVHSTGNTYLEWYLQKPGQSPKVLIYKVSTRFSGVPDRFSGSGSGTDFTLKISRVEAEDLGVYYCFQGSHVPPTFGGGTKLEIK
# notes: tested as chimeric mAb of the mouse hybridoma clone
# Columns and labels:
# [1] = target: T1, human C-C motif chemokine receptor 8 (CCR8) (human, UniProt P51685 1-355); assay: FACS (MFI-PE) on HEK293 hCCR8 cells
# T1 construct: whole, on cells; also called human CCR8; hCCR8
# T1 sequence (P51685 whole entry): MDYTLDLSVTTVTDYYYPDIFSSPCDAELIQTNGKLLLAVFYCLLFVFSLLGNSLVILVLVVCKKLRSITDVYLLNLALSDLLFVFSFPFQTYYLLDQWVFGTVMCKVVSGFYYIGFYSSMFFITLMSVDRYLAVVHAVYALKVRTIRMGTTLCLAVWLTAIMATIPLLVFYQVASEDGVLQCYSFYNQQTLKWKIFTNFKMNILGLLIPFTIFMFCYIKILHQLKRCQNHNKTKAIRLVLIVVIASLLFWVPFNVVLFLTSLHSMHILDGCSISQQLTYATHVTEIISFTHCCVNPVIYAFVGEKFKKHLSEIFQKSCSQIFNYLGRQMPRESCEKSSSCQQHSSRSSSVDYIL
# [2] = target: T1, human C-C motif chemokine receptor 8 …; assay: cell-based or functional assay
# [3] = target: T1, human C-C motif chemokine receptor 8 …; assay: cell-based or functional assay; remark: listed apart in the source
# [4] = target: T1, human C-C motif chemokine receptor 8 …; assay: cell-based or functional assay; remark: listed apart in the source
# [5] = target: T1, human C-C motif chemokine receptor 8 …; assay: cell-based or functional assay; remark: listed apart in the source
# [6] = target: T1, human C-C motif chemokine receptor 8 …; assay: cell-based or functional assay; remark: listed apart in the source
# [7] = target: T1, human C-C motif chemokine receptor 8 …; assay: FACS (MFI-PE) on HEK293 hCCR8 cells; remark: listed apart in the source
# Description: (§1) Briefly, HEK293 hCCR8 cell line, CHO-K1 cyno CCR8 cell line or CHO-K1 hCCR4 cell line was first incubated with 5-fold serially diluted and 8 doses with the above 10 chimeric Abs and hlgG1 control starting from 100 nM at 4° C. for 30 mins. After washing by FACS buffer, PE Goat anti-Human IgG Fc Secondary Antibody (eBioscience™, Invitrogen) was added to each well and incubated at 4° C. for 30 mins. Samples were washed twice with FACS buffer. The mean florescence intensity (MFI) of PE was evaluated by MACSQuant Analyzer 16.
# cyno CCR8 [8] = target: T2, cyno CCR8 (cynomolgus, UniProt G7NYJ2 1-355); assay: FACS (MFI-PE) on CHO-K1 cyno CCR8 cells
# T2 construct: whole, on cells; also called cynomolgus CCR8 protein
# T2 sequence (G7NYJ2 entry or part of it): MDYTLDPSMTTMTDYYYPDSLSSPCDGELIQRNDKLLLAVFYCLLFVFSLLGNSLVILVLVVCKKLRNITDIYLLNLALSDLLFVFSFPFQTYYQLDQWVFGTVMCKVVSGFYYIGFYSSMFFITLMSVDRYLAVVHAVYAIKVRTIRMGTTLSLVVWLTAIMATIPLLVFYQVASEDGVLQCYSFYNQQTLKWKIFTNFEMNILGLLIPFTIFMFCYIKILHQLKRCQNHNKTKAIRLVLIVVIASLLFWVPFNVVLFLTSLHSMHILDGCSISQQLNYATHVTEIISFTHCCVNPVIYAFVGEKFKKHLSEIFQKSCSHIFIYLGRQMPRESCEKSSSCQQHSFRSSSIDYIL
# Description: as §1
# human CCR4 = target: T3, human CCR4 (human, UniProt P51679 1-360); assay: FACS, CHO-K1 hCCR4 cells
# T3 construct: whole, on cells; also called hCCR4
# T3 sequence (looked up): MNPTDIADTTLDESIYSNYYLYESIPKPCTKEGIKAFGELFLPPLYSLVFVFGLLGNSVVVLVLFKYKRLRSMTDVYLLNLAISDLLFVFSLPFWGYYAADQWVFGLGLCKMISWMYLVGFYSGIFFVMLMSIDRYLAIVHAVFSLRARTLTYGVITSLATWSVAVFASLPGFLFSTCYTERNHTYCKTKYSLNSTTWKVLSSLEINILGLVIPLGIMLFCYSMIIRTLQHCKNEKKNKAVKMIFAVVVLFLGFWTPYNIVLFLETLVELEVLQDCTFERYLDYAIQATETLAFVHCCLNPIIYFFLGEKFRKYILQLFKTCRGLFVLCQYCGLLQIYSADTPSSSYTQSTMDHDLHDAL
# Description: as §1
# [9] = target: T1, human C-C motif chemokine receptor 8 …; assay: FACS (MFI-PE) on CHO-K1 hCCR8 cells, bars at five doses
# Description: PE Goat anti-Human IgG Fc Secondary Antibody (eBioscience™, Invitrogen) was added to each well and incubated at 4° C. for 30 mins. Samples were washed twice with FACS buffer. The mean florescence intensity (MFI) of PE was evaluated by MACSQuant Analyzer 16.
# [10] = target: T1, human C-C motif chemokine receptor 8 …; assay: cell-based or functional assay; remark: listed apart in the source
# cyno CCR8 [11] = target: T2, cyno CCR8; assay: FACS (MFI-PE) on CHO-K1 cyno CCR8 cells; remark: listed apart in the source
# [12] = target: T1, human C-C motif chemokine receptor 8 …; assay: FACS (MFI-PE) on CHO-K1 hCCR8 cells
binder,measurement,setting,value
B1,EC50,[1],0.033 nM
same,"IC50, hCCL1-induced beta-arrestin recruitment (RLU), CHO-K1 hCCR8 cells",[2],1.52 nM
B2,EC50,[1],0.092 nM
same,"IC50, hCCL1-induced Ca2+ flux (stimulation %), Chem-1 hCCR8 cells",[3],0.49 nM
same,"IC50, hCCL1-induced beta-arrestin recruitment (RLU), CHO-K1 hCCR8 cells",[2],5.25 nM
B3,EC50,[1],0.052 nM
same,"IC50, hCCL1-induced Ca2+ flux (stimulation %), Chem-1 hCCR8 cells",[3],0.21 nM
same,"IC50, hCCL1-induced beta-arrestin recruitment (RLU), CHO-K1 hCCR8 cells",[2],1.74 nM
B4,"IC50, hCCL1-induced migration of BaF3 hCCR8 cells (RLU) [cont'd) C]",[4],5.28 nM
same,"IC50, hCCL1-induced Ca2+ flux (stimulation %), Chem-1 hCCR8 cells [upper graph]",[5],15.2 nM
same,"IC50, hCCL1-induced beta-arrestin recruitment (RLU), CHO-K1 hCCR8 cells",[6],9.01 nM
same,EC50,[7],0.109 nM
same,EC50,cyno CCR8 [8],0.0853 nM
same,binding result,human CCR4,no binding (tested: 100 nM (highest concentration tested))
B5,"IC50, hCCL1-induced Ca2+ flux (stimulation %), Chem-1 hCCR8 cells [upper graph]",[5],17.8 nM
same,"IC50, hCCL1-induced beta-arrestin recruitment (RLU), CHO-K1 hCCR8 cells",[6],2.28 nM
same,EC50,[7],0.126 nM
same,binding result,human CCR4,no binding (tested: 100 nM (highest concentration tested))
B6,"IC50, hCCL1-induced Ca2+ flux (stimulation %), Chem-1 hCCR8 cells [upper graph]",[5],25.9 nM
same,"IC50, hCCL1-induced beta-arrestin recruitment (RLU), CHO-K1 hCCR8 cells",[6],96.9 nM
same,EC50,[7],0.117 nM
same,EC50,cyno CCR8 [8],0.118 nM
same,binding result,human CCR4,no binding (tested: 100 nM (highest concentration tested))
B7,"IC50, hCCL1-induced migration of BaF3 hCCR8 cells (RLU) [cont'd) C]",[4],2.67 nM
same,"IC50 (read off the curve), hCCL1-induced Ca2+ flux (stimulation %), Chem-1 hCCR8 cells [upper graph]",[5],~2 nM
same,"IC50, hCCL1-induced Ca2+ flux (stimulation %), Chem-1 hCCR8 cells [lower graph]",[5],12.1 nM
same,"IC50, hCCL1-induced beta-arrestin recruitment (RLU), CHO-K1 hCCR8 cells",[6],11.2 nM
same,EC50,[7],0.17 nM
same,EC50,cyno CCR8 [8],0.122 nM
same,binding result,human CCR4,no binding (tested: 100 nM (highest concentration tested))
B8,EC50,[7],0.101 nM
same,EC50,cyno CCR8 [8],0.0942 nM
same,binding result,human CCR4,no binding (tested: 100 nM (highest concentration tested))
B9,"IC50, hCCL1-induced migration of BaF3 hCCR8 cells (RLU) [cont'd) C]",[4],0.721 nM
same,"IC50, hCCL1-induced Ca2+ flux (stimulation %), Chem-1 hCCR8 cells [lower graph]",[5],1.55 nM
same,EC50,[7],0.0769 nM
same,binding result,human CCR4,no binding (tested: 100 nM (highest concentration tested))
B10,binding result,[9],binds
B11,"IC50, hCCL1-induced beta-arrestin recruitment (RLU), CHO-K1 hCCR8 cells",[10],0.288 nM
same,EC50,cyno CCR8 [11],0.517 nM
B12,binding result,[9],binds
B13,binding result,[9],binds
B14,EC50,[12],0.207 nM
same,EC50,cyno CCR8 [11],14.6 nM
B15,"IC50, hCCL1-induced Ca2+ flux (stimulation %), Chem-1 hCCR8 cells; fitted value, the curve stays at about 93 to 100 % beside hIgG1 [upper graph]",[5],22 nM
same,"IC50, hCCL1-induced beta-arrestin recruitment (RLU), CHO-K1 hCCR8 cells; fitted value, points scatter between about 24000 and 33000 RLU with no clear inhibition",[6],0.206 nM
same,EC50,[7],0.0473 nM
same,EC50,cyno CCR8 [8],0.0273 nM
same,binding result,human CCR4,no binding (tested: 100 nM (highest concentration tested))
